Measurements taken from patent publication US20100040611A1 (Merck Sharp & Dohme, published 2010).
Residue numbers refer to the chain shown, from its start. Where two headings read alike, the source gives them in different places.

Assays:
Assay in all cases: cell-based or functional assay
[1] = biological target: T1, recombinant human PCSK9, V5-, His-tagged (human, UniProt Q8NBP7 31-692, limits assumed)
[2] = biological target: T1, recombinant human PCSK9, V5-, His-tagged; remark: listed apart in the source
[3] = biological target: T1, recombinant human PCSK9, V5-, His-tagged; remark: listed apart in the source
[4] = biological target: T1, recombinant human PCSK9, V5-, His-tagged; remark: listed apart in the source
[5] = biological target: T1, recombinant human PCSK9, V5-, His-tagged; remark: listed apart in the source

T1 sequence (Q8NBP7 31-692 limits assumed): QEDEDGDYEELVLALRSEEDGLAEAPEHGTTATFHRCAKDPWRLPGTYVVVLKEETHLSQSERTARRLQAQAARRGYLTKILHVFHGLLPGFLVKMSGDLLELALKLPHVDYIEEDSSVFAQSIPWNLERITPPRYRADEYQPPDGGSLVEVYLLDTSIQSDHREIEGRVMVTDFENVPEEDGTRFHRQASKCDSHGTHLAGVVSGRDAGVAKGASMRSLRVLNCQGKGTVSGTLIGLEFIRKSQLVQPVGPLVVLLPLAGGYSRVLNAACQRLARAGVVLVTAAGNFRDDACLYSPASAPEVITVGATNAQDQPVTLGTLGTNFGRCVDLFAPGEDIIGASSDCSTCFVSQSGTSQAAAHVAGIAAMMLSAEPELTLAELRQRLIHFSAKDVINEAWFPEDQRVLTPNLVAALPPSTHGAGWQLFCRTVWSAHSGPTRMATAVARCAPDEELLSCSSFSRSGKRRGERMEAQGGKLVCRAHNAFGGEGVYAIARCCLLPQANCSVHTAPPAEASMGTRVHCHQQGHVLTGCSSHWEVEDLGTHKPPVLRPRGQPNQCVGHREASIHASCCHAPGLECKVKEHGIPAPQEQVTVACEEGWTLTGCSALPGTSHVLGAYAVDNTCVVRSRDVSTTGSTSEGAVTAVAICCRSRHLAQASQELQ

B1: 3BX5C01 (Fab, V domains shown)
VH: QVQLVQSGAEVKKPGESLKISCKGSGYSFTSYGISWVRQMPGKGLEWMGMIDPSDSFTTYSPSFQGQVTISADKSISTAYLQWSSLKASDTAMYYCARGYYFTYALQPMDHWGQGTLVTVSS
VL: DIELTQPPSVSVAPGQTARISCSGDNLRDYIVHWYQQKPGQAPVLVIYDDSNRPSGIPERFSGSNSGNTATLTISGTQAEDEADYYCGFDNGGDIDVFGGGTKLTVLG
In the case of B1, the “IC50: reversal of PCSK9-dependent loss of cellular diI-LDL uptake (Exopolar assay), Fab titrated against a fixed 25 µg/ml PCSK9” value [1] is reported as 1250 nM.

B2: 3CX2A06 (Fab, V domains shown)
VH: QVQLVQSGAEVKKPGESLKISCKGSGYSFSNFWIAWVRQMPGKGLEWMGIIDPSDSWTRYSPSFQGQVTISADKSISTAYLQWSSLKASDTAMYYCARGDGQDFDNWGQGTLVTVSS
VL: DIQMTQSPSSLSASVGDRVTITCRASQNINSYLNWYQQKPGKAPKLLIYAASSLQSGVPSRFSGSGSGTDFTLTISSLQPEDFAVYYCLQNYDLPNTFGQGTKVEIKR
For B2, the “IC50: reversal of PCSK9-dependent loss of cellular diI-LDL uptake (Exopolar assay), Fab titrated against a fixed 25 µg/ml PCSK9” value [2] was 107 nM.

B3: 3CX3D02 (Fab, V domains shown)
VH: QVQLVQSGAEVKKPGESLKISCKGSGYSFTNSWIGWVRQMPGKGLEWMGIIYPSDSYTIYSPSFQGQVTISADKSISTAYLQWSSLKASDTAMYYCARGGGYYYALMDVWAQGTLVTVSS
VL: B2 VL with N28T, N30S, S31T, Y32W, V85T, N91D, Y92S, D93S, N96L
With B3 the “IC50: reversal of PCSK9-dependent loss of cellular diI-LDL uptake (Exopolar assay), Fab titrated against a fixed 25 µg/ml PCSK9” value [3] was 269 nM.

B4: 1CX1G08 (Fab, V domains shown)
VH: QVQLVESGGGLVQPGGSLRLSCAASGFTFSDYWVSWVRQAPGKGLEWVSFISYDGSSTYYADSVKGRFTISRDNSKNTLYLQMNSLRAEDTAVYYCARTYFEGVDVWGQGTLVTVSS
VL: DIELTQPPSVSVAPGQTARISCSGDNIGTYYVHWYQQKPGQAPVLVIYDDSNRPSGIPERFSGSNSGNTATLTISGTQAEDEADYYCGTWDNTSFNLVFGGGTKLTVLG
In the case of B4, the “IC50: reversal of PCSK9-dependent loss of cellular diI-LDL uptake (Exopolar assay), Fab titrated against a fixed 25 µg/ml PCSK9” value [4] is reported as 267 nM.

B5: 3CX4B08 (Fab, V domains shown)
VH: QVQLVESGGGLVQPGGSLRLSCAASGFTFSNYTMNWVRQAPGKGLEWVSFISSSSSETYYADSVKGRFTISRDNSKNTLYLQMNSLRAEDTAVYYCARGYGDMVDLWGQGTLVTVSS
VL: DIELTQPPSVSVAPGQTARISCSGDSIPTYYVAWYQQKPGQAPVLVIYSDTDRPSGIPERFSGSNSGNTATLTISGTQAEDEADYYCQSFDNHGYHVFGGGTKLTVLG
With B5 the “IC50: reversal of PCSK9-dependent loss of cellular diI-LDL uptake (Exopolar assay), Fab titrated against a fixed 25 µg/ml PCSK9” value [5] was 127 nM.
